Measured values from IntAct's records for PubMed 17272281.

B1: S-M checkpoint control protein rad4 (Schizosaccharomyces pombe (strain ATCC 38366 / 972)), P32372 (parent)
chain: MGSSKPLKGFVICCTSIDLKQRTEISTKATKLGAAYRSDFTKDVTHLIAGDFDTPKYKFAAKSRPDIKIMSSEWIPVLYESWVQGEDLDDGLLVDKHFLPTLFKCRVCLTNIGQPERSRIENYVLKHGGTFCPDLTRDVTHLIAGTSSGRKYEYALKWKINVVCVEWLWQSIQRNAVLEPQYFQLDMPAEKIGLGAYVRLDPNTTEAKSYSENQKISKNKEKSGQSLAALAEEADLEPVIMKRGKKRDRSILWEELNNGKFEFSSRSEENSVLLDDFTPETVQPLEENELDTELNIENEAKLFKNLTFYLYEFPNTKVSRLHKCLSDNGGQISEFLSSTIDFVVIPHYFPVDELPIFSFPTVNEWWIERCLYYKKIFGIDEHALAKPFFRPSLVPYFNGLSIHLTGFKGEELSHLKKALTILGAVVHEFLGVQRSILLVNTNEPFSMKTRFKIQHATEWNVRVVGVAWLWNIIQSGKFIDQVSPWAIDKKENQEIKKFTNQNNMVFPTSDRDTRLQNSLAQQPIGHSTPHNSPSLLSVKKRQNNHIRSNTLIQLNSNSKDSTIFPRRSVTVPGDKIDTVWKSSVTKPETPTSPQEHVSYIDPDAQREKHKLYAQLTSNVDAIPPANDLQNQENGLLLITESHRKLRRR
partner: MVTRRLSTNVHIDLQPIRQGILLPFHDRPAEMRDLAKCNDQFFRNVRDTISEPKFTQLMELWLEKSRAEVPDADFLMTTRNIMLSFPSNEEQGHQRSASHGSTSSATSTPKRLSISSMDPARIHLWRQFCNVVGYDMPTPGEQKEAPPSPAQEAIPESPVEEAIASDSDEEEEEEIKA

Variants of: B1
Conditions: with yq61_schpo yq61, O94733

Variant | effect of a mutation on the interaction
S171N | decreasing interaction
